Test results taken from article PMC10877577 (ACS Chemical Biology, 2024).
“Also recorded” adds a separate entry of the source. Bridges are numbered along the chain shown (N, C = ends). Where no end group is shown, it is not given here.

What was measured:
[1] = molecular target: anti-minocycline single-domain antibody clone 1 (aMinoC1 sdAb) (alpaca); test: SPR; Biacore T200; aMino sdAbs immobilized on a CM5 chip (4300-4600 RU); 1x HBS-EP+; analyte from 2.5 uM in 2-fold serial dilutions, 150 s at 30 uL/min, 150 s dissociation; 1:1 Langmuir model
sdAbs = details: read-out: affinity of sdAb for hapten; cited from earlier work
[2] = system: HEK-293T transduced with the aMinoC1 transmembrane receptor; test: Flow cytometry of peptide-muIgG2a Fc binding to cells with aMinoC1 transmembrane receptor; type: cell-based, human; details: GWARA, HWAQA, PWAYS, QWAMM; increasing minocycline; caffeine 100 μM
Method: Flow cytometry was performed using the MACSQuant Analyzer 10 or MACSQuant X (Miltenyi Biotec). All flow cytometry data was analyzed using FlowJo v.7.6.2 software (Tree Star Inc., Ashland, OR). Cell staining was carried out by incubation with PBS containing the recommended concentration of antibodies at RT for 30 min. PBS washes were carried out between antibody staining. Cell viability was determined using viability dye SYTOX Blue Dead Cell Stain (ThermoFisher) prior to flow cytometric analysis. Cells were first gated for singlet population identified by FSC-H and FSC-A. Next, live cells were identified using a viability dye, followed by gating for target cell populations. The antibodies used in the study are as follows: CD3 PECy7 (Biolegend, 317334), Human CD34 APC-conjugated antibody (R&D system, FAB7227A), Human CD34 Alexa Fluor 488-conjugated antibody (R&D system, FAB7227G), Streptavidin PE (Biolegend, 405204), APC antihuman EGFR antibody (Biolegend, 352905), Alexa Fluor 488 antihuman EGFR antibody (Biolegend, 352907), PE anti-HA.11 Epitope Tag antibody (Biolegend, 901517), Anti-M13-HRP (Sino Biologics, 1197 mm05T-H), Anti-Myc-HRP (Genscript, A00863), and SYTOX Blue Dead Cell Stain (ThermoFisher, S10274).

[3] = system: MinoCAR-transduced PBMC against SupT1-EGFR+ target cells; type: cell-based; details: 0.1, 1 and 10 μM, 24 h, 1:2 E/T
Method: Transduced CAR T cells were determined by staining for the transduction marker RQR8 and normalized by the addition of nontransduced T cells. Effector cells were cocultured with 5.0 × 10^4 number of target cells (SupT1-NT, SupT1-EGFR+, SKOV3-mKate) to achieve the desired effector cell to target ratio. […] Cocultures were incubated for 24–72 h at 37 °C and 5% CO2. After incubation, plates were centrifuged at 400g for 5 min, and the supernatant containing secreted cytokines was collected for cytokine analysis. Cells were stained with anti-hCD34-APC and anti-CD3-PeCy7 to differentiate effector T cells and target cells. Cells were washed with 300 μL o PBS and stained with SYTOX Blue Dead Cell Stain dye. The percentage of target cell survival was measured relative to the number of live target cells cocultured with nonspecific CAR T cells or nontransduced PBMCs.

aMinoC1 sdAb = test: SPR of peptide-Fc or small-molecule analytes against aMinoC1; type: binding, alpaca; details: molecules closely related to minocycline
Method: (§1) Binding assays were carried out using 1x HBS-EP+ running buffer. Various concentrations (2.5 μM with 2-fold serial dilutions) of the analyte were injected for 150 s at 30 μL/min with 150 s dissociation time. Glycine-HCl (pH 2.0) was used as the regeneration buffer for the sensor chips. For the rechallenge experiment, aMinoC1 was immobilized on a CM5 sensor chip and CX7C peptide-Fc conjugates were loaded at 100 nM and injected as the analyte for 150 s at 30 μL/min. Following the injection of peptide-Fc, a small molecule at 1 μM was injected for 300 s at 30 μL/min, using dual injection function on a Biacore 8k instrument, to dissociate the peptide-Fc from the aMinoC1-peptide complex. The system was then washed using HBS-P^+ buffer for 300 s at 30 μL/min prior to rechallenge with peptide-Fc. The cycle was repeated three times following a final dissociation step of 300 s. For the alanine scanning experiments, the anti-minocycline antibody (sdAb-muIgG2a-Fc fusion) was captured on a Protein A series S sensor chip, to a density of 3000 RU. […] Glycine-HCl (pH 1.5) was used as the regeneration buffer. In each case, flow cell 1 was used for reference subtraction, and a “0 concentration” sensogram of buffer alone was used as a double reference subtraction to factor for drift. Data analysis was carried out using Biacore T200 Evaluation Software, version 3.0, and Biacore Insight evaluation software. […]

aMinoC22 sdAb = test: SPR of related small molecules against aMinoC22; type: binding, alpaca; details: molecules closely related to minocycline
Method: as §1

aMinoC1-peptide complex = test: SPR rechallenge: small-molecule-driven dissociation of peptide-Fc from immobilized aMinoC1; type: binding; details: peptide-Fc 100 nM, small molecule 1 μM
Method: Binding assays were carried out using 1x HBS-EP+ running buffer. Various concentrations (2.5 μM with 2-fold serial dilutions) of the analyte were injected for 150 s at 30 μL/min with 150 s dissociation time. Glycine-HCl (pH 2.0) was used as the regeneration buffer for the sensor chips. For the rechallenge experiment, aMinoC1 was immobilized on a CM5 sensor chip and CX7C peptide-Fc conjugates were loaded at 100 nM and injected as the analyte for 150 s at 30 μL/min. Following the injection of peptide-Fc, a small molecule at 1 μM was injected for 300 s at 30 μL/min, using dual injection function on a Biacore 8k instrument, to dissociate the peptide-Fc from the aMinoC1-peptide complex. The system was then washed using HBS-P^+ buffer for 300 s at 30 μL/min prior to rechallenge with peptide-Fc. The cycle was repeated three times following a final dissociation step of 300 s. For the alanine scanning experiments, the anti-minocycline antibody (sdAb-muIgG2a-Fc fusion) was captured on a Protein A series S sensor chip, to a density of 3000 RU. […] Glycine-HCl (pH 1.5) was used as the regeneration buffer. In each case, flow cell 1 was used for reference subtraction, and a “0 concentration” sensogram of buffer alone was used as a double reference subtraction to factor for drift. Data analysis was carried out using Biacore T200 Evaluation Software, version 3.0, and Biacore Insight evaluation software. The 1:1 Langmuir binding model was used to calculate the association (ka), dissociation (kd) rate constants, and equilibrium dissociation constant (KD).

[4] = molecular target: anti-minocycline single-domain antibody clone 1 (aMinoC1 sdAb) (alpaca)
[5] = molecular target: anti-minocycline single-domain antibody clone 1 (aMinoC1 sdAb) (alpaca); remark: listed apart in the source
[6] = molecular target: anti-minocycline single-domain antibody clone 1 (aMinoC1 sdAb) (alpaca); remark: listed apart in the source
minocycline = test: SPR
[7] = molecular target: T1, GWARA CX7C peptide-muIgG2a-Fc fusion; test: ELISA; details: chain shown with the change
T1 chain: ACPGWARAFC

[8] = molecular target: T2, PWAYS CX7C peptide-muIgG2a-Fc fusion (disulfide 1-9 (inferred); also: fused to muIgG2a Fc, end not given here); test: SPR
T2 chain: CPPWAYSFC

[9] = molecular target: T3, HWAQA CX7C peptide-muIgG2a-Fc fusion (disulfide 1-9 (inferred); also: fused to muIgG2a Fc, end not given here); test: SPR
T3 chain: CPHWAQAFC

[10] = molecular target: T4, GWARA CX7C peptide-muIgG2a-Fc fusion (disulfide 2-10 (inferred); also: fused to muIgG2a Fc, end not given here); test: SPR
T4 chain: ACPGWARAFC

[11] = molecular target: T5, QWAMM CX7C peptide-muIgG2a-Fc fusion (disulfide 1-9 (inferred); also: fused to muIgG2a Fc, end not given here); test: SPR
T5 chain: CPQWAMMFC

Molecule: HWAQA CX7C peptide-muIgG2a-Fc fusion
- Kd [1]: 328 nM

Molecule: PWAYS CX7C peptide-muIgG2a-Fc fusion
- Kd [1]: 283 nM

Molecule: Nc1c(Cl)c(Cl)nc(C(=O)O)c1Cl [picloram]
- Kd (sdAbs): 3000 to 354000 nM

Molecule: CC(=O)OC[C@]12[C@H](O)C(=O)C(C)=C[C@H]1O[C@@H]1[C@H](O)C[C@@]2(C)[C@]12CO2 [15-acetyl-deoxynivalenol]
- Kd (sdAbs): 5000 to 215000 nM

Molecule: Cn1c(=O)c2c(ncn2C)n(C)c1=O [caffeine]
- peptide-muIgG2a Fc binding to membrane-bound aMinoC1 in presence of small molecule [2]: no peptide-binding inhibition; also recorded: did not result in a decrease in peptide binding
- effect of other small molecules on MinoCAR cytotoxicity [3]: not affected

Molecule: C[C@H]1c2cccc(O)c2C(=O)C2=C(O)[C@]3(O)C(=O)C(C(N)=O)=C(O)[C@@H](N(C)C)[C@@H]3[C@@H](O)[C@@H]21 [doxycycline]
- binding to aMinoC1 (SPR) (aMinoC1 sdAb): Neither sdAb showed an interaction; also recorded: lack of binding; also recorded: without cross-reactivity
- binding to aMinoC22 (SPR) (aMinoC22 sdAb): Neither sdAb showed an interaction; also recorded: lack of binding
- GWARA-Fc dissociation from immobilized aMinoC1 on small-molecule injection (aMinoC1-peptide complex): No enhanced dissociation
- peptide-Fc (HWAQA, PWAYS and QWAMM) dissociation from immobilised aMinoC1 on small-molecule injection (aMinoC1-peptide complex): No enhanced dissociation
- effect of other small molecules on MinoCAR cytotoxicity [3]: not affected

Molecule: CN(Cc1cnc2nc(N)nc(N)c2n1)c1ccc(C(=O)N[C@@H](CCC(=O)O)C(=O)O)cc1 [methotrexate]
- effect of other small molecules on MinoCAR cytotoxicity [3]: not affected
- Kd (sdAbs): 29 to 515 nM

Molecule: QWAMM CX7C peptide-muIgG2a-Fc fusion
- Kd [1]: 209 nM

Molecule: O=C(Nc1ccc(Cl)cc1)Nc1ccc(Cl)c(Cl)c1 [triclocarbon]
- Kd (sdAbs): 0.98 to 1.37 nM

Molecule: auxin
- Kd (sdAbs): 500 to 20000 nM

Molecule: GWARA CX7C peptide-muIgG2a-Fc fusion
- IFN-y release by MinoUniCAR PBMCs (aMinoC1-CD8stk-CD28TM-CD28-41BBz) with the soluble aEGFR sdAb-GWARA adaptor, 0 uM against 10 uM minocycline [4]: 1570 pg/mL
- IFN-γ secretion by PBMCs transduced with the aMinoC1/GWARA-MyD88/CD40 module against the SG3S-peptide negative control, no minocycline; tuned down about 2-fold by increasing minocycline [5]: 520 pg/mL
- IL12 secreted by T cells that co-express GWARA-flexi-IL12 and aMinoC1-KDEL without minocycline (retention); released up to 150 pg/mL on day 2 and 2.2 ug/mL on day 7 with minocycline up to 2.5 uM [6]: 450 pg/mL
- Kd [1]: 111 nM

B1: anti-minocycline single-domain antibody clone 1 (aMinoC1 sdAb) R64A (protein)
chain: QVQLESGGGLVQPGSSLRLSCAASGRTFSSYNIGWFRQAPKEREFVAAISWSGAATYYADSVKGRFTISRDNAKNTVYLQMNSLKPEDTAVYSCAAGRGWGTEAILDYWGQGTQVSSA
- ratio to parent (minocycline): 1.15
- ratio to parent [7]: 0.18

B2: anti-minocycline single-domain antibody clone 1 (aMinoC1 sdAb) R108A (protein)
chain: QVQLESGGGLVQPGSSLRLSCAASGRTFSSYNIGWFRQAPKEREFVAAISWSGARTYYADSVKGRFTISRDNAKNTVYLQMNSLKPEDTAVYSCAAGAGWGTEAILDYWGQGTQVSSA
- ratio to parent (minocycline): 0.88
- ratio to parent [7]: 0.17

B3: anti-minocycline single-domain antibody clone 1 (aMinoC1 sdAb) G40A (protein)
chain: QVQLESGGGLVQPGSSLRLSCAASGRTFSSYNIAWFRQAPKEREFVAAISWSGARTYYADSVKGRFTISRDNAKNTVYLQMNSLKPEDTAVYSCAAGRGWGTEAILDYWGQGTQVSSA
- ratio to parent (minocycline): 1.7
- ratio to parent [7]: 0.23

B4: anti-minocycline single-domain antibody clone 1 (aMinoC1 sdAb) (VHH)
VHH: QVQLESGGGLVQPGSSLRLSCAASGRTFSSYNIGWFRQAPKEREFVAAISWSGARTYYADSVKGRFTISRDNAKNTVYLQMNSLKPEDTAVYSCAAGRGWGTEAILDYWGQGTQVSSA
- koff [8]: 0.0056 s⁻¹
- koff [9]: 0.0058 s⁻¹
- koff [10]: 0.017 s⁻¹
- koff [11]: 0.0043 s⁻¹

B5: anti-minocycline single-domain antibody clone 1 (aMinoC1 sdAb) R28A (protein)
chain: QVQLESGGGLVQPGSSLRLSCAASGATFSSYNIGWFRQAPKEREFVAAISWSGARTYYADSVKGRFTISRDNAKNTVYLQMNSLKPEDTAVYSCAAGRGWGTEAILDYWGQGTQVSSA
- ratio to parent (minocycline): 1.28
- ratio to parent [7]: 0.17

B6: anti-minocycline single-domain antibody clone 1 (aMinoC1 sdAb) W58A (protein)
chain: QVQLESGGGLVQPGSSLRLSCAASGRTFSSYNIGWFRQAPKEREFVAAISASGARTYYADSVKGRFTISRDNAKNTVYLQMNSLKPEDTAVYSCAAGRGWGTEAILDYWGQGTQVSSA
- ratio to parent (minocycline): 1.06
- ratio to parent [7]: 0.25

B7: anti-minocycline single-domain antibody clone 1 (aMinoC1 sdAb) S35A (protein)
chain: QVQLESGGGLVQPGSSLRLSCAASGRTFASYNIGWFRQAPKEREFVAAISWSGARTYYADSVKGRFTISRDNAKNTVYLQMNSLKPEDTAVYSCAAGRGWGTEAILDYWGQGTQVSSA
- ratio to parent (minocycline): 0.97
- ratio to parent [7]: 0.15

B8: anti-minocycline single-domain antibody clone 1 (aMinoC1 sdAb) A63S (protein)
chain: QVQLESGGGLVQPGSSLRLSCAASGRTFSSYNIGWFRQAPKEREFVAAISWSGSRTYYADSVKGRFTISRDNAKNTVYLQMNSLKPEDTAVYSCAAGRGWGTEAILDYWGQGTQVSSA
- ratio to parent (minocycline): 0.77
- ratio to parent [7]: 0.12
